What was measured:
all the cell lines = experiment: Zn or Ba alone on the cell lines; type: cell-based; settings: all concentrations tested (up to 66 uM)
Description: (§1) Fetuin purified by modified Spiro method was further incubated with Zinc Acetate or Barium Acetate (0.25M) at room temperature for 1 hr. Free ions were removed by repetitive concentration against 20 volumes of PBS three times. Fetuin, Zn-charged fetuin and Ba-charged fetuin (5 uM) and PBS were then separately incubated with LNCaP cells for 4 hr. Percent of cells under apoptosis was determined by Hoechst staining and confirmed by MTS assay. Each data represents the average of two assays. Zn-charged or Ba-charged fetuin may contain free Zn or Ba (about 30 uM). However, all the cell lines are not affected by Zn or Ba alone at all concentrations tested (up to 66 uM).

LNCaP cells = experiment: Fetuin-induced apoptosis, Hoechst staining confirmed by MTS assay; type: cell-based, Human; settings: for apoptosis-inducing activity in LNCaP cells: fetal vs mature fetuins at the same concentration
Description: The purified fetuin was tested on various cancer cell lines. […] The DNA condensation and breakage of nuclei which are the characteristics for apoptosis were observed by staining the cell with Hoechst dye at 0.1 ug/ml.
as §1
Various concentrations of Zn-charged fetuin prepared as described were incubated with cell lines for 6 hr. Percent of cell under apoptosis was determined by Hoechst staining and confirmed by MTS assay. The concentration of Zn-charged fetuin for the induction of 50% of cells under apoptosis (LD50) was determined. Each data represents the average of three assays.

Molecule | effect of free ion alone on the cell lines (all the cell lines) | apoptosis-inducing activity in LNCaP cells (LNCaP cells) | also measured
CC(=O)[O-].CC(=O)[O-].[Ba+2] [Ba] | not affected | – | –
CC(=O)[O-].CC(=O)[O-].[Zn+2] [Zn] | not affected | – | –
human fetuin: human fetuin (Alpha 2-HS glycoprotein) isolated from adult human serum (protein, UniProt P02765 19-300; P02765 341-367, looked up) Alpha-2-HS-glycoprotein chain … 1: APHGPGLIYRQPNCDDPETEEAALVAIDYINQNLPWGYKHTLNQIDEVKVWPQQPSGELFEIEIDTLETTCHVLDPTPVARCSVRQLKEHAVEGDCDFQLLKLDGKFSVVYAKCDSSPDSAEDVRKVCQDCPLLAPLNDTRVVHAAKAALAAFNAQNNGSNFQLEEISRAQLVPLPPSTYVEFTVSGTDCVAKEATEAAKCNLLAEKQYGFCKATLSEKLGGAEVAVTCMVFQTQPVSSQPQPEGANEAVPTPVVDPDAPPSPPLGAPGLPPAGSPPDSHVL Alpha-2-HS-glycoprotein chain … 2: TVVQPSVGAAAGPVVPPCPGRIRHFKV | – | fails to induce apoptosis | –
commercial fetuin: commercial fetuin purchased from Sigma, prepared by the Pederson Method (protein, UniProt P12763 19-359, looked up) Alpha-2-HS-glycoprotein: IPLDPVAGYKEPACDDPDTEQAALAAVDYINKHLPRGYKHTLNQIDSVKVWPRRPTGEVYDIEIDTLETTCHVLDPTPLANCSVRQQTQHAVEGDCDIHVLKQDGQFSVLFTKCDSSPDSAEDVRKLCPDCPLLAPLNDSRVVHAVEVALATFNAESNGSYLQLVEISRAQFVPLPVSVSVEFAVAATDCIAKEVVDPTKCNLLAEKQYGFCKGSVIQKALGGEDVRVTCTLFQTQPVIPQPQPDGAEAEAPSAVPDAAGPTPSAAGPPVASVVVGPSVVAVPLPLHRAHYDLRHTFSGVASVESSSGEAFHVGKTPIVGQPSIPGGPVRLCPGRIRYFKI | – | – | apoptotic activity by method of preparation (LNCaP cells; Pederson Method (Sigma) vs modified Spiro method): did not show apoptotic activity
mature fetuin: fetuin isolated from mature bovine serum (protein, UniProt P12763 19-359, looked up) Alpha-2-HS-glycoprotein: IPLDPVAGYKEPACDDPDTEQAALAAVDYINKHLPRGYKHTLNQIDSVKVWPRRPTGEVYDIEIDTLETTCHVLDPTPLANCSVRQQTQHAVEGDCDIHVLKQDGQFSVLFTKCDSSPDSAEDVRKLCPDCPLLAPLNDSRVVHAVEVALATFNAESNGSYLQLVEISRAQFVPLPVSVSVEFAVAATDCIAKEVVDPTKCNLLAEKQYGFCKGSVIQKALGGEDVRVTCTLFQTQPVIPQPQPDGAEAEAPSAVPDAAGPTPSAAGPPVASVVVGPSVVAVPLPLHRAHYDLRHTFSGVASVESSSGEAFHVGKTPIVGQPSIPGGPVRLCPGRIRYFKI | – | no activity inducing apoptosis | –

— patent publication US20030044400A1, “Composition and method for treating cells” (priority 2001, published 2003)
